The values below come from US20260008852A1 (CRYSTAL BIOSCIENCE, published 2026).

In general, Kd refers to a measure of binding affinity in units of concentration. A lower Kd goes with a tighter complex. Broadly, the koff is the rate constant with which the complex falls apart. High values mean a short-lived complex, low ones a long-lived complex. As a reminder, the kon is the second-order rate constant of association. Read a high kon as fast association.

The chains are these.
T1: B7-H3 on CHO-K1 cells stably transfected with B7-H3 (GenScript #M00536) (UniProt Q5ZPR3 29-534, limits assumed)
T1 sequence (looked up): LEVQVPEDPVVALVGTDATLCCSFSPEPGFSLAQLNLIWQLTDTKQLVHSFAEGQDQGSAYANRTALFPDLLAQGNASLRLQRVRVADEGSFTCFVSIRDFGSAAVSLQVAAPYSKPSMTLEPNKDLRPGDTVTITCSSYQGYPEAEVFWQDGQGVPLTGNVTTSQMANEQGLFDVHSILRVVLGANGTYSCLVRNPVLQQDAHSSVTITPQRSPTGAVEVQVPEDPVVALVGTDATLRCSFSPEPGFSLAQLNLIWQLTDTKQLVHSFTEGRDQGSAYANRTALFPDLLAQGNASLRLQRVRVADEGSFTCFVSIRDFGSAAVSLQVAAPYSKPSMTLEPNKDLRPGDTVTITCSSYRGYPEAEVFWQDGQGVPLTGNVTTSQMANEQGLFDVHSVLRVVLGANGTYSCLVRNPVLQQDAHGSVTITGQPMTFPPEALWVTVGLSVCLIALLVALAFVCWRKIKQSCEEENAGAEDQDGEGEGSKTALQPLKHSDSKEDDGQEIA

T2: his-tagged B7-H3 (UniProt Q5ZPR3-2 29-245, limits assumed)
T2 construct: also called CD276; not shown: His tag
T2 sequence (looked up): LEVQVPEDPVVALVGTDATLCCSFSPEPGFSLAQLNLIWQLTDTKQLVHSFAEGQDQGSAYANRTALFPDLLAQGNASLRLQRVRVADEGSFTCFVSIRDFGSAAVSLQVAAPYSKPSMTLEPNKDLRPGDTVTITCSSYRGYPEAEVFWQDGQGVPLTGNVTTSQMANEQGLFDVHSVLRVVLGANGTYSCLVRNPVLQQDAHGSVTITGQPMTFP

B1: 40511p1.1.D6 IgG (antibody, V domains shown)
VH: DVQLVESGGGVVRPGESLTLSCAASGFTINSYAVSWVRQAPGEGLEWVSGISGSGVRYYADSVKGRFTISRDNSNNTLYLQMNSLRAEDTAVYYCARSNKVTWNNFFDYWGLGTLVTVSS
VL: EVVLTQSPGTLTLSPGERATLSCRASRSILTSLAWYQQKPGQAPRLLIYNTVTRATGIPARFSGSGSGTEFTLTINSLQSEDFAVYYCQQYYDWPPLTFGGGTKVEIK
B2: 40633p1.1.F2 scFv-Fc (scFv, V domains shown)
VH: EVQLLESGGGLVQPGGSLRLSCVASGLTFNGFAMTWVRQAPGKGLEWVSGISWNSGSIYYADSVKGRFTISRDNSKNTVYLQMSSLRAEDTAIYYCAKNWNDYYNSMDVWGQGTTVTVSS
VL: QSVLTQPPSASGTPGQRVTISCSGSRSNIGTKYVYWYQQFPGTAPKLLIYTTDRRPSGVPDRFSGSKSGTSASLAISGLQSEDEADYYCSAWDDRLNAWVFGGGTKLTVL
notes: Tested as scFv-Fc supernatant
B3: 40633p1.1.H11 scFv-Fc (scFv, V domains shown)
VH: EVQLLESGGGLVQPGGSLRLSCAASGFTFSSYPMTWVRQAPGKGLEWVADINSGGGTTLYADAVKGRFTISRDNSKNIVYLQMNSLRGEDTAVYYCAKHLDYYSYGMDVWGQGTTVTVSS
VL: QSVLTQPPSASGTPGQRVTISCSGVTSKIGSKYVHWYQQLPGTAPKLLIYRNFERPSGVPDRFSGSTSGTSASLAISGLQSEDEADYYCATWEGALNGWVFGGGTKLTVL
notes: Tested as scFv-Fc supernatant
B4: Benchmark MGA-271 (antibody, V domains shown)
VH: EVQLVESGGGLVQPGGSLRLSCAASGFTFSSFGMHWVRQAPGKGLEWVAYISSDSSAIYYADTVKGRFTISRDNAKNSLYLQMNSLRDEDTAVYYCGRGRENIYYGSRLDYWGQGTTVTVSS
VL: DIQLTQSPSFLSASVGDRVTITCKASQNVDTNVAWYQQKPGKAPKALIYSASYRYSGVPSRFSGSGSGTDFTLTISSLQPEDFATYYCQQYNNYPFTFGQGTKLEIK
B5: 40633p1.1.E3 scFv-Fc (scFv, V domains shown)
VH: EVQLLESGGGLVQPGGSLRLSCAASGFTVSYYGMSWVRQAPGKGLEWVSAIKQDGSEKYYADSVKGRFTISRDNSKNTLYLQMNSLRAEDTAVYYCARHWNDYSNAMNVWGQGTTVTVSS
VL: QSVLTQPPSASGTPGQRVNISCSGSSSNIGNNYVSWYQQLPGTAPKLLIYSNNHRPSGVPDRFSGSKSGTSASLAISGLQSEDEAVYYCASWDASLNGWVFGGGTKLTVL
notes: Tested as scFv-Fc supernatant
B6: 40633p1.1.G5 scFv-Fc (scFv, V domains shown)
VH: B5 VH with T28I, S30N, A40P, N77T, A106G
VL: QSVLTQPPSASGTPGQRVTISCSGSWSNIGSYNSHWYQKLPGTAPKLLIYTTDRRPSGVPDRFSGSKSGTSASLAISGLQSEDEADYYCGTWDDSLNVWVFGGGTKLTVL
notes: Tested as scFv-Fc supernatant
B7: 40633p1.1.E6 scFv-Fc (scFv, V domains shown)
VH: EVQLLESGGGLVQPGGSLRLSCAASGLTFSSYAMNWVRQAPGKGLEWVAGIGGSGSSTYHTDSVKGRFTISRDNSKNTLYLQMSSLRAEDAAVYYCAKEDHWSGGMDVWGQGTTVTVSS
VL: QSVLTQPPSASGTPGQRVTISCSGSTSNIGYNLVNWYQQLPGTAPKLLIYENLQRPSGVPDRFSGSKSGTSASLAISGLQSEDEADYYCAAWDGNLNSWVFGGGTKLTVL
B8: 40633p1.1.G3 scFv-Fc (scFv, V domains shown)
VH: B7 VH with S84N
VL: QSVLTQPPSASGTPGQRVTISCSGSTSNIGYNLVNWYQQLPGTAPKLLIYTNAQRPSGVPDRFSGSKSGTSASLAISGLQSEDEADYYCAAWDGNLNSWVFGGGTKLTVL
B9: 40633p1.2.D1 scFv-Fc (scFv, V domains shown)
VH: EVQLLESGGGLVQPGGSLRLSCAASGFTFDVYGMSWVRQAPGKGLEWVSAINWNGGSTYYADSVKGRFTISRDNSENTLYLQMNSLRAEDTAVYYCAKEKWKHFIYYGMDVWGQGTTVTVSS
VL: QSVLTQPASASGTPGQTVSISCSGSSSNIDSNTANWYQQLPGTAPKLLIYSNNQRPSGVPDRFSGSKSDTSASLAISGLQSEDEGDYYCSAWDDNLNGWLFGGGTKLTVL
notes: Tested as scFv-Fc supernatant
B10: 40633p1.2.E5 scFv-Fc (scFv, V domains shown)
VH: B9 VH with V31G, N52S, W53G, G55S, T58I, E76K, V93A
VL: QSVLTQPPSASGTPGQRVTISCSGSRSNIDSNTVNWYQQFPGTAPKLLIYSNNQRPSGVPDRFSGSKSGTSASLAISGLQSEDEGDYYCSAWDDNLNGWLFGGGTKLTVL
notes: Tested as scFv-Fc supernatant
B11: 40633p1.2.E11 scFv-Fc (scFv, V domains shown)
VH: EVQLLESGGGLVQPGGSLRLSCAASGFSFSNYDMSWVRQAPGKGLEWVAGIRSGSRTYYADSVKGRFTISRDNSKNTLYLQMNSLRAEDTATYYCGRYFNMDVWGQGTTVTVSS
VL: QSVLTQPPSASGTPGQRVTISCSGSTFNIGTNLVHWYQQLPGTAPKLLIYLTDRRPPGVPDRFSGSKSGTSASLAISGLQSEDEANYYCATWDDSLNSFLFGGGTKLTVL
B12: 40633p1.2.D11 scFv-Fc (scFv, V domains shown)
VH: EVQLESGGGLVQPGGSLRLSCAASGFTVSYYGMSWVRQAPGKGLEWVSAIKQDGSEKYYADSVKGRFTISRDNSKNTLYLQMNSLRAEDTAVYYCARHWNDYSNAMNVWGQGTTVTVSS
VL: QSVLTQPPSASGTPGQRVTISCSGSTSNIAIDFVNWYQQLPGTAPKLLIYTIDQRPSGVPDRFSGSKSGTSASLAISGLQSEDEAVYYCASWDASLNGWVFGRGTKLTVL
notes: Tested as scFv-Fc supernatant
B13: 40633p1.1.G10 scFv-Fc (scFv, V domains shown)
VH: EVQLLESGGGLVEPGGSLRLSCAASGFSFSSYGMHWVRQAPGKGLDWVAVINGEGSGTYYADSVKGRFTISRDNSKSTLYLQMNSLRAEDTAVYYCTKYYYNYAMDVWGQGTTVTVSS
VL: QSVLTQPPSASGTPGQRVTISCSGSRTDIGTTSVNWYQQLPGTAPKLLIYQSHQRPSGVPDRFSGSKSGTSASLAISGLQSEDEADYYCASWDASQNTWVFGGGTKLTVL
B14: 40633p1.2.A8 scFv-Fc (scFv, V domains shown)
VH: B13 VH with V12L, E13Q, D46E, V50A, G53S, E54D, G57R, T58I, S77N, N102H
VL: B13 VL with T27S, T31A, S33T, Q54L, Q96L
B15: 40633p1.2.G9 scFv-Fc (scFv, V domains shown)
VH: EVQLLESGGGLLQPGGSLRLSCAASGFSFSSYGMHWVRQAPGKGLEWVAAINSDGSRIYYADSVEGRFTISRDNSKNTLYLQMNSLRAEDTAVYYCTKYYYHYAMDVWGQGTTVTVSS
VL: B13 VL with T27S, T31A, S33T, Q54L, Q96L
B16: 40633p1.1.G7 scFv-Fc (scFv, V domains shown)
VH: EVQLLESGGGLVQPGGSLRLSCAASGFTFSGSAMNWVRQAPGKGLEWVSAINSGGTTIYYADSVKGRFTVSRDNSKNTLYLQMNSLRAEDTAVYYCVKLDFYYGMDVWGEGTTVTVSS
VL: QSVVTQPPSASGTPGQRVTVSCSGSSSNVGSKYVQWYQQLPGTAPKLLIYATDRRPSGVPDRFSGSKSGTSASLAISGLQSEDEADYYCASWDDSLNAWVFGGGTKLTVL
notes: Tested as scFv-Fc supernatant
B17: 40633p1.1.D11 scFv-Fc (scFv, V domains shown)
VH: EVQLLESGGGLVQPGGSLRLSCAASGFTFRSYAMSWVRQAPGKGLEWVAYIGSSGGTTYYADSVKGRFTISRDNSKNTLYLQMNSLRAEDTAVYYCVKESYYYMDVWGQGTTVTVSS
VL: QSVLTQPPSASGTPGQRVTISCSATISNIDINRVSWYQQLPGTAPKLLIFNSQRPSGVPDRFSGSKSGTSASLAISGLQSEDEADYYCATWDDSLNSWVFGGGTKLTVL
notes: Tested as scFv-Fc supernatant

Residue numbers refer to the chain shown, from its start. Bounds are passed on as bounds.

The target of the first test is T1, B7-H3 on CHO-K1 cells stably …. The test is described as follows: cell-based or functional assay.
As to B1, the “ADCC reporter assay, EC50 Value, CHOK1/B7-H3 cells” value was determined as 0.014 mg/L and the “ADCC reporter assay, Max RLU, CHOK1/B7-H3 cells” value amounted to 751000 RLU.

For a further test, the target named is T2, his-tagged B7-H3. As to the kind of experiment: SPR, Carterra LSA; binder captured by anti-human Fc, his-tagged B7-H3 injected. As to the method: Binding affinities of anti-B7-H3 antibodies to B7-H3 were measured by Surface Plasmon Resonance (SPR) on a Carterra LSA instrument. Goat anti-human Fc antibody was amine coupled to a HC30M chip. ScFv-Fc supernatants were diluted 30-fold with HBSTE and were captured by the anti-human Fc coupled HC30M chip. A 1:2 dilution series of his-tagged B7-H3, starting at 400 nM, was injected onto the chip for binding. Data was analyzed using the Carterra TM Kinetics software.
On the technique in general: In SPR one partner is held on a chip, and binding of the other changes the refractive index at the surface.
The molecule B2 came in with a Kd of 0.298 µM, a koff of 0.03 s⁻¹ and a kon of 108000 M⁻¹ s⁻¹.

Molecule B3 came in with a Kd of 0.000175 µM and a kon of 113000 M⁻¹ s⁻¹.

Turning to B4, the Kd amounted to 0.164 µM, the koff is 0.01 s⁻¹ and the kon was determined as 72000 M⁻¹ s⁻¹.

In the case of B5, the Kd was over 0.4 µM, the koff turned out to be 0.65 s⁻¹ and the kon is 2030 M⁻¹ s⁻¹.

The molecule B6 gave a Kd of 0.437 µM, a koff of 0.06 s⁻¹ and a kon of 141000 M⁻¹ s⁻¹.

In the case of B7, the Kd is 0.142 µM and the kon was 6880 M⁻¹ s⁻¹.

Consider B8, for which the Kd turned out to be 0.524 µM, the off-rate constant (koff) came out at 0.04 s⁻¹ and the kon is 73300 M⁻¹ s⁻¹.

With B9, the affinity, expressed as Kd, was 0.0398 µM; the koff amounted to 0.02 s⁻¹; the kon amounted to 392000 M⁻¹ s⁻¹.

Regarding B10, the Kd came out at 0.0402 µM, the koff worked out at 0.02 s⁻¹ and the kon was 389000 M⁻¹ s⁻¹.

In the case of B11, binding was characterised by a dissociation constant (Kd) of 0.00111 µM and the kon was 134000 M⁻¹ s⁻¹.

B12 showed a Kd of 0.307 µM, a koff of 0.07 s⁻¹ and a kon of 241000 M⁻¹ s⁻¹.

B13 returned a Kd of 0.000248 µM and a kon of 349000 M⁻¹ s⁻¹.

Regarding B14, the affinity, expressed as Kd, was 0.0125 µM and the kon was 304000 M⁻¹ s⁻¹.

B15: the Kd came out at 0.0108 µM and the kon came to 325000 M⁻¹ s⁻¹.

Molecule B16 came in with a Kd of 0.000113 µM and a kon of 411000 M⁻¹ s⁻¹.

As for B17, binding was put at a Kd of 0.0132 µM and the kon stood at 277000 M⁻¹ s⁻¹.
